Legend:
[1] = molecular target: BCOR PUFD (1634-1748) with METR leader, co-expressed and purified with PCGF1 RAWUL (human, UniProt Q6W2J9 1634-1748); experiment: AUC
[2] = molecular target: T1, BCORL1 PUFD (1594-1711) with METR leader, co-expressed and purified with PCGF1 RAWUL (human, UniProt Q5H9F3-1 1594-1711); experiment: AUC
T1 sequence: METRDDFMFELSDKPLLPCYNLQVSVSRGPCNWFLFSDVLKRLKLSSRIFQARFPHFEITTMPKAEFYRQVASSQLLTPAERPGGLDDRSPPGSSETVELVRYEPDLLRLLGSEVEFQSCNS

Kd [1]: < 8.5 µM
Kd [2]: < 8.5 µM
B1: PCGF1 RAWUL (167-255), co-expressed and purified with a PUFD (domain or fragment, human, UniProt Q9BSM1 167-255, looked up)
chain: EQLNLCLERLSSGKDKNKSVLQNKYVRCSVRAEVRHLRRVLCHRLMLNPQHVQLLFDNEVLPDHMTMKQIWLSRWFGKPSPLLLQYSVK

— publication PMC4003909 (Structure (London, England : 1993), 2013)
